Publication PMC11024197 (Nature Communications, 2024)
Where “and” joins values, the source holds several entries; their conditions need not be identical. Equal entries are not always repeated. Each block holds one binder with its values, some of them ahead of it.

B1: PEX13 SH3 domain (residues 261-346) (domain or fragment, human, UniProt Q92968 261-346, looked up)
chain: VTDSINWASGEDDHVVARAEYDFAAVSEEEISFRAGDMLNLALKEQQPKVRGWLLASLDGQTTGLIPANYVKILGKRKGRKTVESS
notes: 15N-labelled in the NMR titrations, unlabelled in ITC; source: E. coli BL21 (DE3), purified (Ni-NTA, SUMO cleavage, reverse Ni-NTA, SEC); not shown: His6-SUMO, N-terminal, cleaved
B2: PEX13 SH3 domain (domain or fragment, human)
chain: VTDSINWASGEDDHVVARAEYDFAAVSEEEISFRAGDMLNLALKEQQPKVRGWLLASLDGQTTGLIPANYVKILGKRKGRKTVESS
notes: the SH3-CTR construct begins at 261 and the crystallised chimeras end the SH3 part at 346; source: E. coli BL21 (DE3), purified (Ni-NTA, SUMO cleavage, reverse Ni-NTA, SEC)
B15: PEX14 NTD (1-104) (domain or fragment, human, UniProt O75381 1-104, looked up)
chain: MASSEQAEQPSQPSSTPGSENVLPREPLIATAVKFLQNSRVRQSPLATRRAFLKKKGLTDEEIDMAFQQSGTAADEPSSLGPATQVVPVQPPHLISQPYSPAGS
notes: human PEX14, N-terminal domain, residues 1-104; also called PEX14 1-104; source: E. coli BL21 (DE3), purified (Ni-NTA, SUMO cleavage, reverse Ni-NTA, SEC); not shown: His6-SUMO, N-terminal, cleaved
B17: PEX14 NTD (1-104) (domain or fragment, human, UniProt O75381 1-104, looked up)
chain: MASSEQAEQPSQPSSTPGSENVLPREPLIATAVKFLQNSRVRQSPLATRRAFLKKKGLTDEEIDMAFQQSGTAADEPSSLGPATQVVPVQPPHLISQPYSPAGS
notes: human PEX14 (UniProtKB O75381), N-terminal domain, residues 1-104; also called PEX14 (1-104); source: E. coli BL21 (DE3), purified (Ni-NTA, SUMO cleavage, reverse Ni-NTA, SEC)

Assays:
Conditions in all cases: both partners purified
PEX5 W3 peptide [1] = biological target: T1, PEX5 W3 peptide (human); experiment: ITC; PEX13 SH3 (35-48 µM) in the cell, titrated with peptide; 25 °C; 20 mM Tris pH 7.5, 50 mM NaCl; one-site binding model; triplicates
T1 construct: 15-mer with the W3 (di)aromatic motif of human PEX5; source: synthetic peptide, bought: PSL (Peptide Specialty Laboratories GmbH)

PEX5 W2 peptide [2] = biological target: T2, PEX5 W2 peptide (human); experiment: ITC; PEX13 SH3 (35-48 uM) in the cell, peptide or fragment in the syringe; 25 °C, 20 mM Tris pH 7.5, 50 mM NaCl; one-site binding model; single runs of triplicates and their averages
T2 construct: 15-mer with the W2 WxxxF motif of human PEX5; source: synthetic peptide, bought: PSL (Peptide Specialty Laboratories)

PEX5 W4 peptide [3] = biological target: T3, PEX5 W4 peptide (human); experiment: as above
T3 construct: 15-mer with the W4 WxxxY motif of human PEX5 (R183, Y185, Y188 are named in the text); source: synthetic peptide, bought: PSL (Peptide Specialty Laboratories)

PEX5 W3 peptide [4] = biological target: T4, PEX5 W3 peptide (human); experiment: as above
T4 construct: 15-mer with the W3 WxxxY motif of human PEX5; source: synthetic peptide, bought: PSL (Peptide Specialty Laboratories)

[5] = biological target: B1; experiment: ITC; PEX13 SH3 (35-48 µM) in the cell, titrated with peptide; 25 °C; 20 mM Tris pH 7.5, 50 mM NaCl; one-site binding model; triplicates
PEX14 NTD (1-104) [6] = biological target: B15; experiment: ITC; PEX14 NTD (1-104) (20-60 µM) in the cell, titrated with PEX5 W peptides or W0 (0.4-0.6 mM), PEX13 FxxxF (0.46 mM) or PEX13 SH3-CTR (1 mM); 25 °C; 20 mM Tris pH 7.5, 50 mM NaCl; one-site binding model; PEX14 concentration corrected with the fit; triplicates
PEX14 NTD (1-104) [7] = biological target: B17; experiment: ITC; PEX14 (1-104) (20-60 uM, concentration corrected with the fit) in the cell, peptide or fragment in the syringe; 25 °C, 20 mM Tris pH 7.5, 50 mM NaCl; one-site binding model; single runs of triplicates and their averages
PEX13 SH3 domain = biological target: B2; experiment: ITC; PEX13 SH3 (35-48 uM) in the cell, peptide or fragment in the syringe; 25 °C, 20 mM Tris pH 7.5, 50 mM NaCl; one-site binding model; single runs of triplicates and their averages
PEX5 W4 peptide [8] = biological target: T5, PEX5 W4 peptide (human); experiment: NMR titration; reduced (2 mM TCEP) 15N PEX13-CTR IA/CC with 4x and 8x PEX5 W4; 1H,15N correlation spectra
T5 construct: source: synthetic peptide, bought: PSL (Peptide Specialty Laboratories GmbH)

PEX5 W2 peptide [9] = biological target: T6, PEX5 W2 peptide (human); experiment: ITC; PEX14 NTD (1-104) (20-60 µM) in the cell, titrated with PEX5 W peptides or W0 (0.4-0.6 mM), PEX13 FxxxF (0.46 mM) or PEX13 SH3-CTR (1 mM); 25 °C; 20 mM Tris pH 7.5, 50 mM NaCl; one-site binding model; PEX14 concentration corrected with the fit; triplicates
T6 construct: 15-mer with the W2 (di)aromatic motif of human PEX5; source: synthetic peptide, bought: PSL (Peptide Specialty Laboratories GmbH)

PEX5 W3 peptide [10] = biological target: T1, PEX5 W3 peptide; experiment: as above
PEX5 W4 peptide [11] = biological target: T5, PEX5 W4 peptide; experiment: as above
PEX5 W4 peptide [12] = biological target: T7, PEX5 W4 peptide (human); experiment: ITC; PEX14 (1-104) at 20-60 µM titrated with PEX5 W peptides or W0 (0.4-0.6 mM), PEX13 FxxxF (0.46 mM) or PEX13 SH3-CTR (1 mM); 25 °C; 20 mM Tris pH 7.5, 50 mM NaCl; one-site model; PEX14 concentration corrected with the fit; triplicates
T7 construct: 15-mer with the W4 WxxxY motif of human PEX5 (R183, Y185, Y188 printed); also called PEX5 W4 motif; source: synthetic peptide, bought: PSL (Peptide Specialty Laboratories)

PEX5 W2 peptide [13] = biological target: T2, PEX5 W2 peptide; experiment: ITC; PEX14 (1-104) (20-60 uM, concentration corrected with the fit) in the cell, peptide or fragment in the syringe; 25 °C, 20 mM Tris pH 7.5, 50 mM NaCl; one-site binding model; single runs of triplicates and their averages
PEX5 W4 peptide [14] = biological target: T3, PEX5 W4 peptide; experiment: as above
PEX5 W3 peptide [15] = biological target: T4, PEX5 W3 peptide; experiment: as above
[16] = biological target: T8, PEX13 SH3-CTR (residues 261-403) (human, UniProt Q92968 261-403); experiment: NMR titration; 15N-labelled PEX13 construct (100 µM reference) with unlabelled ligand added; 1H,15N correlation spectra; 298 K; 20 mM Tris pH 7.5, 50 mM NaCl
T8 construct: 15N-labelled in the NMR titrations, unlabelled as ITC titrant; source: E. coli BL21 (DE3), purified (Ni-NTA, SUMO cleavage, reverse Ni-NTA, SEC); not shown: His6-SUMO, N-terminal, cleaved
T8 sequence (looked up): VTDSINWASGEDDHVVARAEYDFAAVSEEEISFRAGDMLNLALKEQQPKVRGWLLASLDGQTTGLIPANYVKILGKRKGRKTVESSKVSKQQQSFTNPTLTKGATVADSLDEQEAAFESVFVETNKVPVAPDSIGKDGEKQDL

[17] = biological target: B1; experiment: as above

Kd [5]: 6400 nM
stoichiometry N [5]: 1
B4: PEX13 C-terminal peptide (351-403) with the FxxxF motif replaced by the PEX5 W4 motif (peptide)
chain: YGGQQQSFTNPTLTKGATVADSLDEQEAAWYDEYVETNKVPVAPDSIGKDGEKQDL
notes: three residues added before residue 351; also called FF/W4; source: E. coli BL21 (DE3), purified (Ni-NTA, SUMO cleavage, reverse Ni-NTA, SEC); not shown: His6-SUMO, N-terminal, cleaved

stoichiometry N (PEX14 NTD (1-104) [6]): 1
B5: PEX5 W6 peptide (peptide)
peptide: GTSDAWVDQFTRPVN
notes: 15-mer with the W6 (di)aromatic motif of human PEX5; source: synthetic peptide, bought: PSL (Peptide Specialty Laboratories GmbH)

stoichiometry N (PEX14 NTD (1-104) [7]): 1 sites
B6: PEX5 W6 peptide (peptide)
peptide: GTSDAWVDQFTRPVN
notes: 15-mer with the W6 WxxxF motif of human PEX5; source: synthetic peptide, bought: PSL (Peptide Specialty Laboratories)

stoichiometry N (PEX14 NTD (1-104) [6]): 1
B8: PEX5 W7 peptide (peptide)
peptide: AEAHPWLSDYDDLTS
notes: 15-mer with the W7 (di)aromatic motif of human PEX5; source: synthetic peptide, bought: PSL (Peptide Specialty Laboratories GmbH)

Kd (PEX14 NTD (1-104) [7]): 3090 nM and 2230 nM and 3080 nM
stoichiometry N (PEX14 NTD (1-104) [7]): 1 sites
Kd (PEX13 SH3 domain): 21400 nM and 32400 nM and 27000 nM
stoichiometry N (PEX13 SH3 domain): 1 sites
B9: PEX13 FxxxF peptide (residues 350-403) (domain or fragment, human, UniProt Q92968 350-403, looked up)
chain: KQQQSFTNPTLTKGATVADSLDEQEAAFESVFVETNKVPVAPDSIGKDGEKQDL
notes: also called Pex13_FxF; source: E. coli BL21 (DE3), purified (Ni-NTA, SUMO cleavage, reverse Ni-NTA, SEC)

stoichiometry N (PEX14 NTD (1-104) [7]): 1 sites
B11: PEX5 W7 peptide (peptide)
peptide: AEAHPWLSDYDDLTS
notes: 15-mer with the W7 WxxxY motif of human PEX5; source: synthetic peptide, bought: PSL (Peptide Specialty Laboratories)

binding result (PEX5 W4 peptide [8]): binds
B14: PEX13-CTR double cysteine mutant I333C/A376C (IA/CC) (domain or fragment, human, UniProt Q92968 261-403, looked up)
chain: VTDSINWASGEDDHVVARAEYDFAAVSEEEISFRAGDMLNLALKEQQPKVRGWLLASLDGQTTGLIPANYVKCLGKRKGRKTVESSKVSKQQQSFTNPTLTKGATVADSLDEQEACFESVFVETNKVPVAPDSIGKDGEKQDL
notes: the two states are told apart by the assay; 15N-labelled; also called PEX13 CTR IA/CC; PEX13-CTR IA/CC; source: E. coli BL21 (DE3), purified (Ni-NTA, SUMO cleavage, reverse Ni-NTA, SEC); not shown: His6-SUMO, N-terminal, cleaved

Kd (PEX5 W4 peptide [12]): 3140 nM
B16: PEX14 NTD (1-104) (domain or fragment, human, UniProt O75381 1-104, looked up)
chain: MASSEQAEQPSQPSSTPGSENVLPREPLIATAVKFLQNSRVRQSPLATRRAFLKKKGLTDEEIDMAFQQSGTAADEPSSLGPATQVVPVQPPHLISQPYSPAGS
notes: human PEX14 N-terminal domain, residues 1-104; also called PEX14 (1-104); source: E. coli BL21 (DE3), purified (Ni-NTA, SUMO cleavage, reverse Ni-NTA, SEC)

binding result [16]: binds
binding result [17]: binds
B18: PEX13 PxxP peptide (49-61) (peptide, UniProt Q92968 49-61, looked up)
peptide: TRVPPPILPRPSQ

Further lines, the binder ahead of its results:

Binder: B1
Kd (PEX5 W3 peptide [1]): 102000 nM

Binder: B2
Kd (PEX5 W2 peptide [2]): 88800 nM and 86800 nM and 88600 nM
Kd (PEX5 W4 peptide [3]): 44900 nM and 48500 nM and 36900 nM
Kd (PEX5 W3 peptide [4]): 112000 nM and 92300 nM

B3: PEX13 C-terminal peptide (351-403) with WT FxxxF motif (peptide)
chain: YGGQQQSFTNPTLTKGATVADSLDEQEAAFESVFVETNKVPVAPDSIGKDGEKQDL
notes: three residues added before residue 351; main text and some legends say 350-403; also called PEX13 FxxxF; FxxxF peptide (350-403); source: E. coli BL21 (DE3), purified (Ni-NTA, SUMO cleavage, reverse Ni-NTA, SEC); not shown: His6-SUMO, N-terminal, cleaved
Kd [5]: 26900 nM
stoichiometry N [5]: 1

B7: PEX5 W1 peptide (peptide)
peptide: ALSENWAQEFLAAGD
notes: 15-mer with the W1 (di)aromatic motif of human PEX5; source: synthetic peptide, bought: PSL (Peptide Specialty Laboratories GmbH)
Kd (PEX14 NTD (1-104) [6]): 72.3 nM
stoichiometry N (PEX14 NTD (1-104) [6]): 1

B10: PEX5 W5 peptide (peptide)
peptide: AQAEQWAAEFIQQQG
notes: 15-mer with the W5 WxxxF motif of human PEX5; source: synthetic peptide, bought: PSL (Peptide Specialty Laboratories)
Kd (PEX14 NTD (1-104) [7]): 17.2 nM and 18.8 nM and 25.5 nM and 20.5 nM
stoichiometry N (PEX14 NTD (1-104) [7]): 1 sites

B12: PEX5 W1 peptide (peptide)
peptide: ALSENWAQEFLAAGD
notes: 15-mer with the W1 WxxxF motif of human PEX5; source: synthetic peptide, bought: PSL (Peptide Specialty Laboratories)
Kd (PEX14 NTD (1-104) [7]): 75.1 nM and 62.6 nM and 79.1 nM and 72.3 nM
stoichiometry N (PEX14 NTD (1-104) [7]): 1 sites

B13: PEX5 W5 peptide (peptide)
peptide: AQAEQWAAEFIQQQG
notes: 15-mer with the W5 (di)aromatic motif of human PEX5; source: synthetic peptide, bought: PSL (Peptide Specialty Laboratories GmbH)
Kd (PEX14 NTD (1-104) [6]): 20.5 nM
stoichiometry N (PEX14 NTD (1-104) [6]): 1

Binder: B15
Kd (PEX5 W2 peptide [9]): 73.6 nM
Kd (PEX5 W3 peptide [10]): 136 nM
Kd (PEX5 W4 peptide [11]): 3140 nM

Binder: B17
Kd (PEX5 W2 peptide [13]): 70.4 nM and 69.1 nM and 81.2 nM and 73.6 nM
Kd (PEX5 W4 peptide [14]): 2510 nM and 3260 nM and 3640 nM and 3140 nM
Kd (PEX5 W3 peptide [15]): 188 nM and 97.5 nM and 124 nM and 136 nM
